The record followed here is US20090098148A1.

For this test, the target named is epidermal growth factor receptor (EGFR) on A431 human epidermoid cells (human) (UniProt P00533). As to the kind of experiment: cell-based or functional assay.

“streptavidin-TGF-α fusion protein (ST-TGF) (from UniProt P22629 40-157; P01135 40-89)” came in with a mean fluorescence activity (biotin-β-galactosidase delivered into each A431 cell, FACS) of 214; a positive cells (delivery of biotin-β-galactosidase into A431 cells, staining and FACS) above 99%.
